Test [1] deals with PAR-2 RING domain (C. elegans). Put plainly: SEC-MALS.
Test [2] has as its target PAR-2 RING domain (C. elegans). As to the kind of experiment: AUC.

Regarding PAR-2 RING domain (domain or fragment), the stoichiometry N in test [1] was 2. Besides, the Kd in test [2] amounted to 358 nM.
